Geometric mean value of the signal intensity data for one substance are collected here from patent US20110112279A1.

In the assay the target is receptor for STOP-1 on the cell surface (unidentified; HeLa, HT1080, HUVEC and MDA-MB-435 cells) (human). Nature of the assay: flow cytometry on MDA-MB-435 cells, flag-tagged STOP-1 alone, anti-flag M2-FITC detection; detection antibody alone gave approximately 7.99.

For the substance “flag-tagged full length human STOP-1 (from UniProt Q96CG8 31-243) (ligand)”, the geometric mean value of the signal intensity is 13.2.
